In US20100099079:

Test system: 5-FAM/QXL 520 NS3 FRET substrate

Substance: Recombinant HCV NS3/4A protease
- NS3 FRET activity (5-FAM dequenching): FRET signal increased with increasing amounts of purified NS3, revealing a linear correlation (R^2=0.999) between NS3 protein levels and FRET activity
